Results published in US20050142634A1, “Novel modulator of non-genomic activity of nuclear receptors (mnar) and uses thereof” (Wyeth, priority 2001, published 2005).

B1: mutant 10: MNAR mutant aa 595-962 (protein, listed as Homo sapiens)
chain: PPPLACALQAFSLGQREDSLEVSSFCSEALVTCAALTHPRVPPLQPMGPTCPTPAPVPPPEAPSPFRAPPFHPPGPMPSVGSMPSAGPMPSAGPMPSAGPVPSARPGPPTTANHLGLSVPGLVSVPPRLLPGPENHRAGSNEDPILAPSGTPPPTIPPDETFGGRVPRPAFVHYDKEEASDVEISLESDSDDSVVIVPEGLPPLPPPPPSGATPPPIAPTGPPTASPPVPAKEEPEELPAAPGPLPPPPPPPPPVPGPVTLPPPQLVPEGTPGGGGPPALEEDLTVININSSDEEEEEEEEGEEEEEEEEEEEEDFEEEEEDEEEYFEEEEEEEEEFEEEFEEEEGELEEEEEEEDEEEEEELEEVED
B2: mutant 9: MNAR mutant, C-terminal portion aa 595-1131 (protein, listed as Homo sapiens)
chain: PPPLACALQAFSLGQREDSLEVSSFCSEALVTCAALTHPRVPPLQPMGPTCPTPAPVPPPEAPSPFRAPPFHPPGPMPSVGSMPSAGPMPSAGPMPSAGPVPSARPGPPTTANHLGLSVPGLVSVPPRLLPGPENHRAGSNEDPILAPSGTPPPTIPPDETFGGRVPRPAFVHYDKEEASDVEISLESDSDDSVVIVPEGLPPLPPPPPSGATPPPIAPTGPPTASPPVPAKEEPEELPAAPGPLPPPPPPPPPVPGPVTLPPPQLVPEGTPGGGGPPALEEDLTVININSSDEEEEEEEEGEEEEEEEEEEEEDFEEEEEDEEEYFEEEEEEEEEFEEEFEEEEGELEEEEEEEDEEEEEELEEVEDLEFGTAGGEVEEGAPPPPTLPPALPPPESPPKVQPEPEPEPGLLLEVEEPGTEEERGADTAPTLAPEALPSQGEVEREGESPAAGPPPQELVEEEPSAPPTLLEEEPEDGSDKVQPPPETPAEEEMETETEAEALQEKEQDDTAAMLADFIDCPPDDEKPPPPSEPDS
B3: mutant 11: MNAR mutant aa 595-887 (protein, listed as Homo sapiens)
chain: PPPLACALQAFSLGQREDSLEVSSFCSEALVTCAALTHPRVPPLQPMGPTCPTPAPVPPPEAPSPFRAPPFHPPGPMPSVGSMPSAGPMPSAGPMPSAGPVPSARPGPPTTANHLGLSVPGLVSVPPRLLPGPENHRAGSNEDPILAPSGTPPPTIPPDETFGGRVPRPAFVHYDKEEASDVEISLESDSDDSVVIVPEGLPPLPPPPPSGATPPPIAPTGPPTASPPVPAKEEPEELPAAPGPLPPPPPPPPPVPGPVTLPPPQLVPEGTPGGGGPPALEEDLTVININSSD

system: ER; assay: MNAR structural-functional analysis, ER-stimulated transcription in HepG2 cells; format: cell-based; details: MNAR deletion mutants transfected into HepG2 cells
Method: To delineate the regions of MNAR that are responsible for interaction with estrogen receptor and c-Src tyrosine kinase, we performed functional evaluation of MNAR deletion mutants (FIG. 12). A series of C-terminal truncations of MNAR was generated using specially designed oligonucleotides, by amplifying appropriate fragments and cloning them into appropriate expression vectors. These mutants were tested for their abilities to enhance ER-stimulated transcription when transfected into HepG2 cells.
At the C-terminus, MNAR contains a region rich in both proline and glutamic acid. To delineate the regions on MNAR responsible for interaction with estrogen receptors and c-src tyrosine kinase, a functional evaluation of MNAR deletion mutants was performed (FIG. 12). A series of C-terminal truncations of MNAR was generated using specially designed oligonucleotides, by amplifying appropriate fragments and cloning them into appropriate expression vectors. These mutants were tested for their abilities to enhance ER-stimulated transcription when transfected into HepG2 cells.

Molecule	ability to enhance ER-stimulated transcription
B1	inactive
B2	inactive
B3	inactive
